Measurements as given in US20040110684A1 (UNIVERSITE CATHOLIQUE DE LOUVAIN, published 2004).
One block for each binder: values may come before it.

B1: endothelial nitric oxide synthase (eNOS), endogenous, human umbilical vein endothelial cells (HUVECs) (enzyme)
chain: GNLKSVAQEPGPPCGLGLGLGLGLCGKQGPATPAPEPSRAPASLLPPAPEHSPPSSPLTQPPEGPKFPRVKNWEVGSITYDTLSAQAQQDGPCTPRRCLGSLVFPRKLQGRPSPGPPAPEQLLSQARDFINQYYSSIKRSGSQAHEQRLQEVEAEVAATGTYQLRESELVFGAKQAWRNAPRCVGRIQWGKLQVFDARDCRSAQEMFTYICNHIKYATNRGNLRSAITVFPQRCPGRGDFRIWNSQLVRYAGYRQQDGSVRGDPANVEITELCIQHGWTPGNGRFDVLPLLLQAPDDPPELFLLPPELVLEVPLEHPTLEWFAALGLRWYALPAVSNMLLEIGGLEFPAAPFSGWYMSTEIGTRNLCDPHRYNILEDVAVCMDLDTRTTSSLWKDKAAVEINVAVLHSYQLAKVTIVDHHAATASFMKHLENEQKARGGCPADWAWIVPPISGSLTPVFHQEMVNYFLSPAFRYQPDPWKGSAAKGTGITRKKTFKEVANAVKISASLMGTVMAKRVKATILYGSETGRAQSYAQQLGRLFRKAFDPRVLCMDEYDVVSLEHETLVLVVTSTFGNGDPPENGESFAAALMEMSGPYNSSPRPEQHKSYKIRFNSISCSDPLVSSWRRKRKESSNTDSAGALGTLRFCVFGLGSRAYPHFCAFARAVDTRLEELGGERLLQLGQGDELCGQEEAFRGWAQAAFQAACETFCVGEDAKAAARDIFSPKRSWKRQRYRLSAQAEGLQLLPGLIHVHRRKMFQATIRSVENLQSSKSTRATILVRLDTGGQEGLQYQPGDHIGVCPPNRPGLVEALLSRVEDPPAPTEPVAVEQLEKGSPGGPPPGWVRDPRLPPCTLRQALTFFLDITSPPSPQLLRLLSTLAEEPREQQELEALSQDPRRYEEWKWFRCPTLLEVLEQFPSVALPAPLLLTQLPLLQPRYYSVSSAPSTHPGEIHLTVAVLAYRTQDGLGPLHYGVCSTWLSQLKPGDPVPCFIRGAPSFRLPPDPSLPCILVGPGTGIAPFRGFWQERLHDIESKGLQPTPMTLVFGCRCSQLDHLYRDEVQNAQQRGVFGRVLTAFSREPDNPKTYVQDILRTELAAEVHRVLCLERGHMFVCGDVTMATNVLQTVQRILATEGDMELDEAGDVIGVLRDQQRYHEDIFGLTLRTQEVTSRIRTQSFSLQERQLRGAVPWAFDPPGSDTNSP

Legend:
[1] = molecular target: calmodulin (CaM), endogenous, human umbilical vein endothelial cells (HUVECs) (human, UniProt P0DP23 2-149); experiment: eNOS IP, CaM immunoblot, VEGF-treated HUVEC lysates
[2] = molecular target: T1, endothelial nitric oxide synthase (eNOS), endogenous, mouse cardiac microvascular endothelial cells (CMECs) (mouse, UniProt P70313 2-1202); experiment: co-IP with eNOS or caveolin antibodies, immunoblot, CMEC lysates
T1 construct: Endogenous protein in a cell lysate, detected by co-immunoprecipitation and immunoblot; also called endothelial NO synthase
T1 sequence (looked up): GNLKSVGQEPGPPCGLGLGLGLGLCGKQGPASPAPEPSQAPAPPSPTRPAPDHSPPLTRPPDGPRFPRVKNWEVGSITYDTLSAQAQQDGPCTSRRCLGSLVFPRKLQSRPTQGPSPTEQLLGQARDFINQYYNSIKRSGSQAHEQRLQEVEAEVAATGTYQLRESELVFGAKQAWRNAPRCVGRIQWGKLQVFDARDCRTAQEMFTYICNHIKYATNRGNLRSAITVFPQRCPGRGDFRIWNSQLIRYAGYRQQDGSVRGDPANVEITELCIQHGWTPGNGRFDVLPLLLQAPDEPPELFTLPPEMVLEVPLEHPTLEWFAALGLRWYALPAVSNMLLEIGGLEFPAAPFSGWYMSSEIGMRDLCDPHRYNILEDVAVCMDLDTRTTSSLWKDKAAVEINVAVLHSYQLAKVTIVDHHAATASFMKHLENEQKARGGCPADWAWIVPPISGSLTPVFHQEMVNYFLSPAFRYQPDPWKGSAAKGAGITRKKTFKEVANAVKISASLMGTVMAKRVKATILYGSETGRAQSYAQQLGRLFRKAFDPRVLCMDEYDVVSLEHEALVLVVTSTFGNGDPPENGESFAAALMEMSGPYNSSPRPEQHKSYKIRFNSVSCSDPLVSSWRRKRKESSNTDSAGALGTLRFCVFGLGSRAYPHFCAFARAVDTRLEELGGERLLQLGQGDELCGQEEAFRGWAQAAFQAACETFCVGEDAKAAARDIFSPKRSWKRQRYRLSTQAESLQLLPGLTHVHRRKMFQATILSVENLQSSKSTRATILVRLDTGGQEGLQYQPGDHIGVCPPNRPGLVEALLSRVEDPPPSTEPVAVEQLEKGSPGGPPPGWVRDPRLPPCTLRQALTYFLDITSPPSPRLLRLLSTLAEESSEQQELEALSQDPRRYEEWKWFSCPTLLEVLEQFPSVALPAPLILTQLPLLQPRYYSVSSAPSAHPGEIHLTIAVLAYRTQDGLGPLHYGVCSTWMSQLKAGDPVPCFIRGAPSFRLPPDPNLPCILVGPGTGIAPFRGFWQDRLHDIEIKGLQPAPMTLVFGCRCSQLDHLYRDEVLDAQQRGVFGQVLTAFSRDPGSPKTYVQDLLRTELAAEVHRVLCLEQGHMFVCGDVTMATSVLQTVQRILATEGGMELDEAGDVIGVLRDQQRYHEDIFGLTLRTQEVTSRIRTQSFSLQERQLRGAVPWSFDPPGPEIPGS

[3] = molecular target: B1; experiment: caveolin IP, eNOS immunoblot, HUVEC lysates

Binder: B1
binding result [1]: binds

binding result [2]: binds
B2: caveolin, endogenous, mouse cardiac microvascular endothelial cells (CMECs) (other, UniProt P49817 2-178, looked up)
chain: SGGKYVDSEGHLYTVPIREQGNIYKPNNKAMADEVTEKQVYDAHTKEIDLVNRDPKHLNDDVVKIDFEDVIAEPEGTHSFDGIWKASFTTFTVTKYWFYRLLSTIFGIPMALIWGIYFAILSFLHIWAVVPCIKSFLIEIQCISRVYSIYVHTFCDPLFEAIGKIFSNIRISTQKEI
notes: also called caveolin-1

binding result [3]: binds
B3: caveolin, endogenous, human umbilical vein endothelial cells (HUVECs) (other, UniProt Q03135 2-178, looked up)
chain: SGGKYVDSEGHLYTVPIREQGNIYKPNNKAMADELSEKQVYDAHTKEIDLVNRDPKHLNDDVVKIDFEDVIAEPEGTHSFDGIWKASFTTFTVTKYWFYRLLSALFGIPMALIWGIYFAILSFLHIWAVVPCIKSFLIEIQCISRVYSIYVHTVCDPLFEAVGKIFSNVRINLQKEI
notes: also called caveolin-1
